The results in this text go back to patent CN111778218A (SHANDONG KUANHEZHENG BIOTECHNOLOGY MEDICINE CO LTD, dated 2020).

For the experiment, the target named is T1, 牛血清白蛋白BSA (牛 (bovine), UniProt P02769 25-607).
T1 construct: also called 牛血清蛋白
Briefly: phage ELISA, BSA coated at 1 μg/mL.

Positions count from the first letter of the chain named.

T1 sequence (P02769 25-607 limits assumed): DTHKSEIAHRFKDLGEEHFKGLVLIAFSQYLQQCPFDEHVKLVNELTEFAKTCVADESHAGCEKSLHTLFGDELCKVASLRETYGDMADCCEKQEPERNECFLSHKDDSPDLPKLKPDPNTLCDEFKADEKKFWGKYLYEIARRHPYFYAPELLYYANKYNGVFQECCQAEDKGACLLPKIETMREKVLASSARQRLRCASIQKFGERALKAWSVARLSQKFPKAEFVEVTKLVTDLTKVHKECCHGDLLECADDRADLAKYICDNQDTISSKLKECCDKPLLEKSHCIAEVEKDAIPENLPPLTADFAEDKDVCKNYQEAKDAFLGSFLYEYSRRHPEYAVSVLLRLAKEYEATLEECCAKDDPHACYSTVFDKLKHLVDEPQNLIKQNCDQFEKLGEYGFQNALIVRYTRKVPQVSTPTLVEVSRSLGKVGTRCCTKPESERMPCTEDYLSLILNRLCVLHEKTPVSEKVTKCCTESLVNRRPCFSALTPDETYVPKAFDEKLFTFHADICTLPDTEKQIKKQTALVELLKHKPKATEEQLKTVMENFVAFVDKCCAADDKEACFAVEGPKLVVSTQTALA

B1: 噬菌体展示的单克隆抗体A9 (antibody, V domains shown)
VH: EVQLLESGGGLVQPGGSLRLSCAASGFTFSSYAMSWVRQAPGKGLEWVSGITNSGSSTSYADSVKGRFTISRDNSKNTLYLQMNSLRAEDTAVYYCAKGTDAFDYWGQGTLVTVSS
VL: DIQMTQSPSSLSASVGDRVTITCRASQSISSYLNWYQQKPGKAPKLLIYAASTLQSGVPSRFSGSGSGTDFTLTISSLQPEDFATYYCQQSNCSPATFGQGTKVEIKR
notes: also called A9抗体
Take B1: the binding result is “no binding”.

B2: 噬菌体展示的单克隆抗体H9 (antibody, V domains shown)
VH: B1 VH with G50D, N53D, S54N, S56A, S59G, G99S, D101N, A102T
VL: B1 VL with L33I, A50D, T53S, S91N, N92S, C93N, A96S
notes: also called H9抗体
Turning to B2, the binding result was “no binding”.

B3: 噬菌体展示的单克隆抗体E11 (antibody, V domains shown)
VH: B1 VH with G50S, T52D, N53S, S56Y, S57Y, G99N, T100S, A102S
VL: B1 VL with A50S, T53Y, S91Y, N92D, C93D, S94G, A96N
notes: also called E11抗体
Consider B3, for which the binding result is given as “no binding”.

B4: 噬菌体展示的单克隆抗体F5 (antibody, V domains shown)
VH: B1 VH with G50T, T52D, N53S, S54A, S56N, S59T, G99N, T100D, D101S, A102S
VL: B1 VL with A50S, T53W, S91Y, N92S, C93D, S94G, A96D
notes: also called F5抗体; 噬菌体展示F5抗体
With B4, the binding result is “no binding”.

B5: 噬菌体展示的单克隆抗体F10 (antibody, V domains shown)
VH: B1 VH with T52D, N53S, S54A, S56Y, S57Y, S59T, G99D, T100S, A102T
VL: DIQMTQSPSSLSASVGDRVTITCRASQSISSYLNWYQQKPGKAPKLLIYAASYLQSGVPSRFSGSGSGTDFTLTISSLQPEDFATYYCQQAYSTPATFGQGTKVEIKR
notes: also called F10抗体
Consider B5, for which the binding result was “no binding”.
